Measured values from article PMC13631358.

Target: tapasin-ERp57 heterodimer (ER-lumenal domain of tapasin, full-length ERp57 Cys36Ala), disulfide-linked (human) (UniProt P30101)
Assay: ITC; Crt or Crt^Δacidic (titrant, 500 µM) into tapasin-ERp57 heterodimer (analyte, 19 µM; no PaSta1 Fab named); 25 °C; 50 mM HEPES-NaOH pH 7.4, 150 mM NaCl, 1 mM CaCl2

Kd: 4.2 µM
Substance: calreticulin (amino acids 18-417) (from UniProt P27797 18-417) (natural protein)
